The assay has as its system PPO-deficient BT3 E. coli (ΔPPO). Briefly: PPO-inhibiting herbicide tolerance test of PPO variants in E. coli (growth on herbicide-containing LB agar). The class given is cell-based. The conditions noted are these: CyPPO19 variants in BT3 (ΔPPO) E. coli; LB agar with 0 to 2,000 μM herbicide, 37° C., dark, 16-20 hours. The gist of the method:
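Transformants were grown to OD600 0.5–1, adjusted to OD600=0.5 and spotted as 10-fold dilutions on LB agar with ampicillin (100 μg/mL) and 0 to 2,000 μM herbicide. Plates were kept at 37° C in the dark for 16-20 hours; growth was scored relative to wild type, one '+' per 10-fold resistance.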

B1: CyPPO19 R89A + A167L + F360T: variant of CyPPO19 PPO protein (SEQ ID NO: 1) (protein)
chain: MSEVDVAIVGGGLSGLSLAWRLQQSAPQYSVVLLEASDRLGGNITTQTAEGFVWELGPNSFAPTPALLQLIAEVGLQSELIRGDRHLPAYIYWRGQLYPLQPTRPLALATSNLLSPWGKVRAALGALGFVPPYLGSGDESVNSFFRRHLGQEVAERLVAPFVSGVYLGDPQQLSAAAAFRRIAQLEKLGGGLIAGALHLRRQQAPKPKPPTSVQMRPGELGSFKEGLAALPRAIAQQLKAPIHLQTPVQEITPDPKGGYLLRSGEQTWRARSVVLATPAYQTAELVAPFQPAIARVLATIPYPTVACVVLAYPAGLGRSVRPGFGVLIPRSQGIRTLGTIWSSCLFPQRTPAGWQVFTSTIGGATDPDLASLSEEAIVQQVQQDLNRLLDLPAAKARLLGMKVWRRAIPQYMVGYPEQWQQVTHALSQTPGLFLCSNYAEGVALGDRVEHGNRTAAAVAAYLSGGQP
modifications: Synthetic_PPO of Thermosynechococcus elongatus PKUAC-SCTE542 (comprising GenBank No. CP032152.1)
For the molecule B1, the “tolerance level relative to wild type, Carfentrazone” value is on record as “++ (‘+’ per each 10-fold resistance)”; the “tolerance level relative to wild type, Flumioxazin” value is on record as “++++ (‘+’ per each 10-fold resistance)”; the “tolerance level relative to wild type, Fomesafen” value is on record as “++ (‘+’ per each 10-fold resistance)”; the “tolerance level relative to wild type, Oxyfluorfen” value is reported as “++ (‘+’ per each 10-fold resistance)”. Besides, the “tolerance level relative to wild type, Saflufenacil” value is “++++ (‘+’ per each 10-fold resistance)”; the “tolerance level relative to wild type, Sulfentrazone” value is on record as “+++ (‘+’ per each 10-fold resistance)”; the “tolerance level relative to wild type, Tiafenacil” value is listed as “++++ (‘+’ per each 10-fold resistance)”.

B2: CyPPO19 R89A + V305M + F360I: variant of CyPPO19 PPO protein (SEQ ID NO: 1) (protein)
chain: MSEVDVAIVGGGLSGLSLAWRLQQSAPQYSVVLLEASDRLGGNITTQTAEGFVWELGPNSFAPTPALLQLIAEVGLQSELIRGDRHLPAYIYWRGQLYPLQPTRPLALATSNLLSPWGKVRAALGALGFVPPYLGSGDESVNSFFRRHLGQEVAERLVAPFVSGVYAGDPQQLSAAAAFRRIAQLEKLGGGLIAGALHLRRQQAPKPKPPTSVQMRPGELGSFKEGLAALPRAIAQQLKAPIHLQTPVQEITPDPKGGYLLRSGEQTWRARSVVLATPAYQTAELVAPFQPAIARVLATIPYPTMACVVLAYPAGLGRSVRPGFGVLIPRSQGIRTLGTIWSSCLFPQRTPAGWQVFTSIIGGATDPDLASLSEEAIVQQVQQDLNRLLDLPAAKARLLGMKVWRRAIPQYMVGYPEQWQQVTHALSQTPGLFLCSNYAEGVALGDRVEHGNRTAAAVAAYLSGGQP
modifications: Synthetic_PPO of Thermosynechococcus elongatus PKUAC-SCTE542 (comprising GenBank No. CP032152.1)
For the molecule B2, the “tolerance level relative to wild type, Carfentrazone” value was “+ (‘+’ per each 10-fold resistance)”; the “tolerance level relative to wild type, Flumioxazin” value is “+++ (‘+’ per each 10-fold resistance)”; the “tolerance level relative to wild type, Fomesafen” value is “+ (‘+’ per each 10-fold resistance)”; the “tolerance level relative to wild type, Oxyfluorfen” value is listed as “+ (‘+’ per each 10-fold resistance)”. In addition, the “tolerance level relative to wild type, Saflufenacil” value is on record as “+++ (‘+’ per each 10-fold resistance)”; the “tolerance level relative to wild type, Sulfentrazone” value was “++ (‘+’ per each 10-fold resistance)”; the “tolerance level relative to wild type, Tiafenacil” value is recorded as “+++ (‘+’ per each 10-fold resistance)”.

For the origin of these results see patent publication US12698507B2, “Methods and compositions for conferring and/or enhancing herbicide tolerance using protoporphyrinogen IX oxidase of various cyanobacteria or variant thereof” (FarmHannong Co., Ltd., priority 2019, dated 2026).
